Source: PMC5001930 (Biological psychiatry, 2016)

Each binder was assayed against MET receptor tyrosine kinase (mouse (endogenous in neocortical …, UniProt P16056 25-1379)) (assay: co-IP).

mean fold change (HGF/PBS) of binding | Binder
1.35 fold | GRM5 (receptor, UniProt Q3UVX5 19-1203, looked up) SAQSSERRVVAHMPGDIIIGALFSVHHQPTVDKVHERKCGAVREQYGIQRVEAMLHTLERINSDPTLLPNITLGCEIRDSCWHSAVALEQSIEFIRDSLISSEEEEGLVRCVDGSSSFRSKKPIVGVIGPGSSSVAIQVQNLLQLFNIPQIAYSATSMDLSDKTLFKYFMRVVPSDAQQARAMVDIVKRYNWTYVSAVHTEGNYGESGMEAFKDMSAKEGICIAHSYKIYSNAGEQSFDKLLKKLRSHLPKARVVACFCEGMTVRGLLMAMRRLGLAGEFLLLGSDGWADRYDVTDGYQREAVGGITIKLQSPDVKWFDDYYLKLRPETNLRNPWFQEFWQHRFQCRLEGFAQENSKYNKTCNSSLTLRTHHVQDSKMGFVINAIYSMAYGLHNMQMSLCPGYAGLCDAMKPIDGRKLLDSLMKTNFTGVSGDMILFDENGDSPGRYEIMNFKEMGKDYFDYINVGSWDNGELKMDDDEVWSKKNNIIRSVCSEPCEKGQIKVIRKGEVSCCWTCTPCKENEYVFDEYTCKACQLGSWPTDDLTGCDLIPVQYLRWGDPEPIAAVVFACLGLLATLFVTVIFIIYRDTPVVKSSSRELCYIILAGICLGYLCTFCLIAKPKQIYCYLQRIGIGLSPAMSYSALVTKTNRIARILAGSKKKICTKKPRFMSACAQLVIAFILICIQLGIIVALFIMEPPDIMHDYPSIREVYLICNTTNLGVVTPLGYNGLLILSCTFYAFKTRNVPANFNEAKYIAFTMYTTCIIWLAFVPIYFGSNYKIITMCFSVSLSATVALGCMFVPKVYIILAKPERNVRSAFTTSTVVRMHVGDGKSSSAASRSSSLVNLWKRRGSSGETLRYKDRRLAQHKSEIECFTPKGSMGNGGRATMSSSNGKSVTWAQNEKSTRGQHLWQRLSVHINKKENPNQTAVIKPFPKSTESRGQGAGAGGGSGPGAAGAGSAGCTATGGPEPPDAGPKALYDVAEAEERFPAAARPRSPSPISTLSHLAGSAGRTDDDAPSLHSETAARSSSSQGSLMEQISSVVTRFTANITELNSMMLSTAAAPGPPGTPICSSYLIPKEIQLPTTMTTFAEIQPLPAIEVTGGAQPATGPSPAQETPAGAEAAPGKPDLEELVALTPPSPFRDSVDSGSTTPNSPVSESALCIPSSPKYDTLIIRDYTQSSSSL
0.95 fold | NTRK3 (receptor) not shown

Binder | mean fold change (HGF/PBS) of binding
SYNGAP1 (natural protein, UniProt F6SEU4 1-1340, looked up) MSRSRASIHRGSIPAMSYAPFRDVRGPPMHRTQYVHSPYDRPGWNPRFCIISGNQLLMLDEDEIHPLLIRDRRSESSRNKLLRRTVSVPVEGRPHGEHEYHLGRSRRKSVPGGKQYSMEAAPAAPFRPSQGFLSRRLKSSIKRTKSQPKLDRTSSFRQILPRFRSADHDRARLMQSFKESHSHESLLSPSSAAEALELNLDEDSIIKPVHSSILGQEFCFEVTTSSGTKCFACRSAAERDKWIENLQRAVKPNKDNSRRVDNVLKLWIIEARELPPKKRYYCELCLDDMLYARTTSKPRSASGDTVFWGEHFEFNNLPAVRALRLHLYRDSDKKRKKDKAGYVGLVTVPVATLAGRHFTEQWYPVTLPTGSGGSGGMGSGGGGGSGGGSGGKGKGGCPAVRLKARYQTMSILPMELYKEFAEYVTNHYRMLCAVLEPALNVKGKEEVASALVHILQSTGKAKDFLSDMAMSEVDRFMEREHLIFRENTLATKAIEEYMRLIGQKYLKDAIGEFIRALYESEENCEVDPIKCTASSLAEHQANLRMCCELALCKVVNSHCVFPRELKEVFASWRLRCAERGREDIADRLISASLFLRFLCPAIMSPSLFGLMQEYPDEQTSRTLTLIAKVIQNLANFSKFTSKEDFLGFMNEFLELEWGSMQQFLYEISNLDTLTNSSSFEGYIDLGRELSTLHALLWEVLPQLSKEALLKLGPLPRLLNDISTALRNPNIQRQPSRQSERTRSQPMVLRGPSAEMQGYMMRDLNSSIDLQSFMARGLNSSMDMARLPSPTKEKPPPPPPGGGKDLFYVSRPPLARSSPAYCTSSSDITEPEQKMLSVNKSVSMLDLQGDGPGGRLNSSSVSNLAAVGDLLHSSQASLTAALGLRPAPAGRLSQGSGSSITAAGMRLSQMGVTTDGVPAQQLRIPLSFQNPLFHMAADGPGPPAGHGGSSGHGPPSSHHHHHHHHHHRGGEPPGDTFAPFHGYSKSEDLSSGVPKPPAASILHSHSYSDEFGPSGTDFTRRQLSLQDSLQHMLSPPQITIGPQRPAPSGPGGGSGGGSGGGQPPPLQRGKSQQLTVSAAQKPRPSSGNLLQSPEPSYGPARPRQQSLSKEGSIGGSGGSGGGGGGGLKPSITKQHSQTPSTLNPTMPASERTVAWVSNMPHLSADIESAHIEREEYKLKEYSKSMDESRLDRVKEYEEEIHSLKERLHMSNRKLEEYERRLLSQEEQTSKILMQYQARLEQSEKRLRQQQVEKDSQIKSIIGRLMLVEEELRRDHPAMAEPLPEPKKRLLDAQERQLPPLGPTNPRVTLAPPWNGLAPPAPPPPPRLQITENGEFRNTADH | 0.63 fold
